Source: US20210047402A1 (published 2021)
Where two headings read alike, the source gives them in different places.

Tests used:
[1] = molecular target: T1, human CD22 (human, UniProt P20273 20-687); test: BLI
In short: (§1)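 Heavy chain-only antibodies were loaded at 5 μg/mL for 120 seconds onto anti-human IgG Fc capture biosensors on an Octet QK-384, using 1×PBS, 0.1% BSA, 0.02% Tween-20, pH 7.2 buffer. Human CD22 protein was applied in a 7-point 1:2 dilution series beginning at 250 nM, alongside a buffer-only reference well, and the data were fit to a 1:1 binding model in Octet Data Analysis v9.0. Kd, the affinity measure from this biolayer interferometry assay, was obtained as koff/kon.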

[2] = molecular target: T1, human CD22; test: BLI; remark: listed apart in the source
In short: as §1

T1 sequence (P20273 20-687): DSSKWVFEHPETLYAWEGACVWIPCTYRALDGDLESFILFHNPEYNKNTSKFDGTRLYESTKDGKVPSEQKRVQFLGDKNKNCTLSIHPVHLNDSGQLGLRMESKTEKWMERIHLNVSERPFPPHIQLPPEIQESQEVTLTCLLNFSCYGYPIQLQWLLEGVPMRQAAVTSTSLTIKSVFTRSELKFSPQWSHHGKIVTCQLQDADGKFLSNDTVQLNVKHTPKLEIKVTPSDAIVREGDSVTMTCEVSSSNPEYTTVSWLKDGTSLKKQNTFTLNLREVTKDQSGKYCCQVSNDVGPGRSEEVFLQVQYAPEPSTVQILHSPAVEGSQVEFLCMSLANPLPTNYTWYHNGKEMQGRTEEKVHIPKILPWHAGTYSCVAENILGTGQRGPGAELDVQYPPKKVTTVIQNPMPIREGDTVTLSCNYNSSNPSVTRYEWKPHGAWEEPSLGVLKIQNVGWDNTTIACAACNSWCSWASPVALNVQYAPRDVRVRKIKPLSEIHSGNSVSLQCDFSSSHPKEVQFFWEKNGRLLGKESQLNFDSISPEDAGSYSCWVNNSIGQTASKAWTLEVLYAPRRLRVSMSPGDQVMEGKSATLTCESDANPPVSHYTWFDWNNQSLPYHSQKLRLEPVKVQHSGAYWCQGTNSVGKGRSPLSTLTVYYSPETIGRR

| Kd [1] [nM] | Kd [2] [nM] | Binder |
| --- | --- | --- |
| 7.41 | – | anti-CD22 heavy chain-only antibody Clone ID 335293 (antibody, V domains shown) VH: QLQLQESGPGLVKPSETLSLTCTVSGDSISSGDYYWGWIRQPPGKGLEWIGHIYYSGATYYNPSLKNRVTISVDTSRNQFSLKLSSVTAADTAVYYCTREDSSSWRSRGQGTLVTVSS |
| – | 23.6 | anti-CD22 heavy chain-only antibody Clone ID 335274 (antibody, V domains shown) VH: QLQLQESGPGLVKPSETLSLTCTVSGGSISSSSYYWGWIRQPPGKGLEWIGSIYYSGSTYYNPSLKSRVTISVDTSRNQFSLNLSSVTAADTAVYYCTREDSSSWRSRGQGTLVTVSS |
| – | 23.5 | anti-CD22 heavy chain-only antibody Clone ID 335316 (antibody, V domains shown) VH: QLQLQESGPGLVKPSETLSLTCTVSGGSISSSSYYWGWIRQPPGKGLEWIGHIYYSGATYYNPSLKNRVTISVDTSKNQFSLKLSSVTAADTAVYYCTREDSSSWRSRGQGTLVTVSS |
| 5.07 | – | anti-CD22 heavy chain-only antibody Clone ID 335244 (antibody, V domains shown) VH: QLQLQESGPGLVKPSETLSLTCTVSGDSISSGDYYWGWIRQPPGKGLEWIGHIYYSGATYYNPSLKNRVTISVDTSRNQFSLNLSSVTAADTAVYYCTREDSSSWRSRGQGTLVTVSS |
| 12.6 | – | anti-CD22 heavy chain-only antibody Clone ID 335301 (antibody, V domains shown) VH: QLQLQESGPGLVKPSETLSLTCTVSGDSISSGDYYWGWIRQPPGKGLEWIGNIYYSGATYYNPSLKNRVTISVDTSKNQFSLKLSSVTAADTAVYYCTREDSSSWRSRGQGTLVTVSS |

More lines, now with the values behind:

| Binder | Kd [1] [nM] | Kd [2] [nM] |
| --- | --- | --- |
| anti-CD22 heavy chain-only antibody Clone ID 335206 (antibody, V domains shown) VH: QLQLQESGPGLVKPSETLSLTCTVSGDSISSGDYYWGWIRQPPGKGLEWIGHIYYSGATYYNPSLKNRVTISVDTSKNQFSLKLSSVTAADTAVYYCTREDSSNWRSRGQGTLVTVSS | 7.53 | – |
| anti-CD22 heavy chain-only antibody Clone ID 335158 (antibody, V domains shown) VH: QLQLQESGPGLVKPSETLSLTCTVSGGSISSGDYYWGWIRQPPGKGLEWIGHIYYSGATYYNPSLKNRVTISVDTSRNQFSLKLSSVTAADTAVYYCTRDDSSNWRSRGQGTLVTVSS | 42.3 | – |
| anti-CD22 heavy chain-only antibody Clone ID 335170 (antibody, V domains shown) VH: QLQLQESGPGLVKPSETLSLTCTVSGDSISSGDYYWGWIRQPPGKGLEWIGHIYYSGATYYNPSLKNRVTISVDTSRNQFSLKLSSVTAADTAVYYCTRDDSSNWRSRGQGTLVTVSS | 6.5 | – |
| anti-CD22 heavy chain-only antibody Clone ID 335150 (antibody, V domains shown) VH: QLQLQESGPGLVKPSETLSLTCTVSGDSISSGDYYWGWIRQSPEKGLEWIGHIYYSGVTYYNPSLKNRVTISVDTSKNQFSLKLSSVTAADTAVYYCKRDDSSNWRSRGQGTLVTVSS | – | 14.1 |
| anti-CD22 heavy chain-only antibody Clone ID 335159 (antibody, V domains shown) VH: QLQLQESGPGLVKPSETLSLTCTVSGGSISSSSYYWGWIRQPPGKGLEWIGHIYYSGVTYYNPSLKNRVTISVDTSKNQFSLKLSSVTAADTAAYYCTRDDSSNWRSRGQGTLVTVSS | – | 16.1 |
| anti-CD22 heavy chain-only antibody Clone ID 335218 (antibody, V domains shown) VH: QLQLQESGPGLVKPSETLSLTCTVSGDSISSGDYYWGWIRQPPGKGLEWIGHIYYSGATYYNPSLKNRVTISVDTSRNQFSLKLSSVTAADTAVYYCTREDSSNWRSRGQGTLVTVSS | 8.91 | – |
| anti-CD22 heavy chain-only antibody Clone ID 335187 (antibody, V domains shown) VH: QLQLQESGPGLVKPSETLSLTCTVSGGSISSSSYYWGWIRQPPGKGLEWIGHIYYSGATYYNPSLKNRVTISVDTSKNQFSLKLSSVTAADTAVYYCTRDDSSNWRSRGQGTLVTVSS | – | 128 |
| anti-CD22 heavy chain-only antibody Clone ID 335182 (antibody, V domains shown) VH: QLQLQESGPGLVKPSETLSLTCTVSGDSISSGDYYWGWIRQPPGKGLEWIGNIYYSGATYYNPSLKNRVTISVDTSKNQFSLKLSSVTAADTAVYYCTRDDSSNWRSRGQGTLVTVSS | 22.4 | – |
| anti-CD22 heavy chain-only antibody Clone ID 335162 (antibody, V domains shown) VH: QLQLQESGPGLVKPSETLSLTCTVSGGSIISSSYYWGWIRQPPGKGLEWIGSIYYSGSAYYHPSLKSRVTISIDTSKNQFSLKLSSVTAADTAVYYCARDDSSNWRSRGQGTLVTVSS | – | 99.6 |
